Consider four substances from publication PMC4609290 (Molecular cell, 2015).

Test [1] has as its target T1, AF10PZP (Homo sapiens, UniProt P55197).
T1 sequence (P55197 18-208 isoform P55197-1): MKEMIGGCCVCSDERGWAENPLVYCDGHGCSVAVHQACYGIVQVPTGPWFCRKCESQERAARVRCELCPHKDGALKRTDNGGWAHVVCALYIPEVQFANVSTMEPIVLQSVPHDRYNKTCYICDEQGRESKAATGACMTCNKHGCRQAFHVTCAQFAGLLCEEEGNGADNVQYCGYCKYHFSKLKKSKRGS
The experiment in a line: Binding of minimal H3 peptide to the PZP domain. Particulars: Figure S1D.

A further test concerns AF17PZP. Kind of test: Histone peptide pull-down with AF17PZP. Particulars: biotinylated H3 peptides, Western blot. The format is binding, human. Background: A western blot detects proteins with antibodies after separation by electrophoresis.
For test [2], the target named is T1, AF10PZP. Kind of test: Histone peptide pull-down with AF10PZP. The format is binding. Particulars: biotinylated H3 peptides, Western blot; GST-AF10PZP.
The next test relates to JADE1PZP. Kind of test: Histone peptide pull-down with JADE1PZP. The format is binding, human. To be noted: biotinylated H3 peptides, Western blot.
The target in test [3] is T1, AF10PZP. The experiment in a line: ITC binding of H3 peptides to AF10PZP. To be noted: standard deviation derived from nonlinear fitting.

Take “H3(1-36) peptide spanning residues A21 to K27: minimal peptide, segment of H3(1-36) spanning residues A21 to K27 (ATKAARK; UniProt P68431 22-28, looked up, fragment)”: in the test with AF10PZP [1], the “binding of minimal peptide to the PZP domain” value is recorded as “sufficient for binding, though with weaker affinity than the longer peptide”.
With “H3K27 acetylated: Acetylation of H3K27, H3 (aa 15-34) peptides”, the “binding to AF17PZP (peptide pull-down)” value with AF17PZP was “disrupted recognition”. In the test with AF10PZP [2], the “binding to AF10PZP (peptide pull-down)” value is “disrupted recognition”.
As for “H3_1-21: peptide spanning amino acids 1-21 (H3_1-21; the very N-terminus of H3)”, the “binding to AF17PZP (peptide pull-down)” value in the test on AF17PZP was “did not bind”. Besides, the “binding to AF10PZP (peptide pull-down)” value with AF10PZP [2] is “did not bind”. Besides, the “binding to JADE1PZP (peptide pull-down)” value in the test with JADE1PZP was “bound as expected”.
Regarding “H3_15-34 di-methylation at K27: H3_15-34 peptide with di-methylation at K27”, the “binding to AF17PZP (peptide pull-down)” value in the test with AF17PZP is reported as “abolished”. In addition, in the test with AF10PZP [2], the “binding to AF10PZP (peptide pull-down)” value is “abolished”. Besides, the Kd result in the test with AF10PZP [3] was “could no longer be detected”.
